Experiments:
EPHB1 = EPHB1 (UniProt P54762); assay: phosphorylation enrichment, bacterial display (enrichment ratio); higher = better substrate or ligand; peptides without Tyr show the background
Fes = Fes (UniProt P07332); assay: as above
c-Src = assay: as above
FGFR3 = FGFR3 (UniProt P22607); assay: as above
Fer (mouse) = assay: as above
Jak2 = Jak2 (UniProt O60674); assay: as above
Fyn = Fyn (UniProt P06241); assay: as above
MERTK = MERTK (UniProt Q12866); assay: as above
FGFR1 = FGFR1 (UniProt P11362); assay: as above
Chain of FGFR1 (P11362 whole entry, looked up): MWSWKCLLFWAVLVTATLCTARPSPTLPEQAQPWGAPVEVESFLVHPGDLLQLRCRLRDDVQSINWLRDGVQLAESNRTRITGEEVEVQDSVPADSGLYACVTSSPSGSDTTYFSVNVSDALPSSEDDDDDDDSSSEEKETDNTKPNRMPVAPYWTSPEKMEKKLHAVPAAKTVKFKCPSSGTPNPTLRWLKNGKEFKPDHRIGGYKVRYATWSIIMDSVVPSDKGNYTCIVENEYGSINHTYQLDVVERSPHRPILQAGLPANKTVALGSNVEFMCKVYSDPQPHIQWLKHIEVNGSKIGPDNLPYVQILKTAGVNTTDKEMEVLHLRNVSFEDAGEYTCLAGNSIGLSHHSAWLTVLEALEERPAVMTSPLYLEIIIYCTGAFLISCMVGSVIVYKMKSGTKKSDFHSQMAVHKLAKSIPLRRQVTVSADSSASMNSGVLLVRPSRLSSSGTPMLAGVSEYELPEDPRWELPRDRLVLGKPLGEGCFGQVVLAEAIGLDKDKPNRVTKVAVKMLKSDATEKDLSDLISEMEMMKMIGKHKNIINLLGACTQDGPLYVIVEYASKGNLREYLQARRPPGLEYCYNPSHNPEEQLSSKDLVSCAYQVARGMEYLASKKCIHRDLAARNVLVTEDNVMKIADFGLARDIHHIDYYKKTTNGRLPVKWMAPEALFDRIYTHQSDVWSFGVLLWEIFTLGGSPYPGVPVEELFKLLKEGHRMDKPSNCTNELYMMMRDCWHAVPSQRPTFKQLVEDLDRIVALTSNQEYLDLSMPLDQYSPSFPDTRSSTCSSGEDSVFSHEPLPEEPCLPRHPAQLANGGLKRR

c-Abl (mouse) = assay: as above
EPHB2 = EPHB2 (UniProt P29323); assay: as above
Chain of EPHB2 (P29323 whole entry, looked up): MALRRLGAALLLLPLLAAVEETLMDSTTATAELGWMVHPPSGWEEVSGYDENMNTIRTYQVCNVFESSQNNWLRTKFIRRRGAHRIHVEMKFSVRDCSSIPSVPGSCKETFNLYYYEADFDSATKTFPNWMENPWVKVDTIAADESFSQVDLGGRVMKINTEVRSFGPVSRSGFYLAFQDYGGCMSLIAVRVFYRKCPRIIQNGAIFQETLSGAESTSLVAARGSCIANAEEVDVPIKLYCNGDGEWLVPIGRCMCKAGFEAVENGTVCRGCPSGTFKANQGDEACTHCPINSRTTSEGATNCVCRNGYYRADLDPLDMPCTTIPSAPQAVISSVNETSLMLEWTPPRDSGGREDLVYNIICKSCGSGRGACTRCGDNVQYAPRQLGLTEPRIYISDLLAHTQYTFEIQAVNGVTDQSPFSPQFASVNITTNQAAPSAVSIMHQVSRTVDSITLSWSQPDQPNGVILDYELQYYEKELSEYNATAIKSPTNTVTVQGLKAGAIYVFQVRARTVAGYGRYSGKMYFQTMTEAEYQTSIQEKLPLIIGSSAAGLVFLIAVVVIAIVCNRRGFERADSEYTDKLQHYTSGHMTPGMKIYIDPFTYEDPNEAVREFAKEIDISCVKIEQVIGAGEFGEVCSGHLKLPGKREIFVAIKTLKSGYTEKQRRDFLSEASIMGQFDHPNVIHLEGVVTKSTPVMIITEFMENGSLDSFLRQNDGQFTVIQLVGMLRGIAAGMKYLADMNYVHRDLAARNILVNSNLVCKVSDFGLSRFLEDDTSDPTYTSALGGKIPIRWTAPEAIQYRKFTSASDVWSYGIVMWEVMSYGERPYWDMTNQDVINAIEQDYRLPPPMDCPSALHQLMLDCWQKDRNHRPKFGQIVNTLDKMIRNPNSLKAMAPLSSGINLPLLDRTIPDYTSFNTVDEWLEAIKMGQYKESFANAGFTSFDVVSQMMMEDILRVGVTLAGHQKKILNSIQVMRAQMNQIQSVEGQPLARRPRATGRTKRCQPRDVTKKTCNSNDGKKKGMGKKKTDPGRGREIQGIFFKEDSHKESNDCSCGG

AncSZ = assay: as above
Hck = Hck (UniProt P08631); assay: as above
Chain of Hck (P08631 whole entry, looked up): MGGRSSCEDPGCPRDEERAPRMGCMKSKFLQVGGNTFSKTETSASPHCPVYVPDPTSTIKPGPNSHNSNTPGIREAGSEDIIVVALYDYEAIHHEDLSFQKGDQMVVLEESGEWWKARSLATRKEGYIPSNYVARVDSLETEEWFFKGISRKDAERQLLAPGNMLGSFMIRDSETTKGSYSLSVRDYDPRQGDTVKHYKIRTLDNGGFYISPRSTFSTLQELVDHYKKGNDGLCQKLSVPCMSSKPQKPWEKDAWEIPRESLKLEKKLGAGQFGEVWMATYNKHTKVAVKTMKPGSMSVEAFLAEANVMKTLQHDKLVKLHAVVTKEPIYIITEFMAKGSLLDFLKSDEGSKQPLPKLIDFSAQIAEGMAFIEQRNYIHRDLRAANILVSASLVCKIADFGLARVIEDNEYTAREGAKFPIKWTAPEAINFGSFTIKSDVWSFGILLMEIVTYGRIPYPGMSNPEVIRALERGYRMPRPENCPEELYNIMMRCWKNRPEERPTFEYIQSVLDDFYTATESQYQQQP

Grb2 SH2 = Grb2 SH2 (UniProt P62993); assay: SH2 binding enrichment of the phosphorylated peptide, bacterial display (enrichment ratio); higher = better substrate or ligand; peptides without Tyr show the background
c-Src SH2 = assay: as above
SHP2-C SH2 = assay: as above
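Throughout, for SH2 binding enrichment of the phosphorylated peptide, bacterial display: peptide library displayed on the E. coli surface as eCPX fusions, selected cells deep-sequenced, score is each peptide's frequency after selection divided by its frequency in the input.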
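Throughout, for phosphorylation enrichment, bacterial display: 11-residue human phosphosite peptides and single-mutation variants displayed on the E. coli surface, counted by deep sequencing, each peptide's frequency after selection divided by its frequency in the unselected input library; frequency after pTyr selection over input frequency; kinase dosed for 20-30% of maximal phosphorylation in three min.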

Chain of EPHB1 (P54762 whole entry, looked up): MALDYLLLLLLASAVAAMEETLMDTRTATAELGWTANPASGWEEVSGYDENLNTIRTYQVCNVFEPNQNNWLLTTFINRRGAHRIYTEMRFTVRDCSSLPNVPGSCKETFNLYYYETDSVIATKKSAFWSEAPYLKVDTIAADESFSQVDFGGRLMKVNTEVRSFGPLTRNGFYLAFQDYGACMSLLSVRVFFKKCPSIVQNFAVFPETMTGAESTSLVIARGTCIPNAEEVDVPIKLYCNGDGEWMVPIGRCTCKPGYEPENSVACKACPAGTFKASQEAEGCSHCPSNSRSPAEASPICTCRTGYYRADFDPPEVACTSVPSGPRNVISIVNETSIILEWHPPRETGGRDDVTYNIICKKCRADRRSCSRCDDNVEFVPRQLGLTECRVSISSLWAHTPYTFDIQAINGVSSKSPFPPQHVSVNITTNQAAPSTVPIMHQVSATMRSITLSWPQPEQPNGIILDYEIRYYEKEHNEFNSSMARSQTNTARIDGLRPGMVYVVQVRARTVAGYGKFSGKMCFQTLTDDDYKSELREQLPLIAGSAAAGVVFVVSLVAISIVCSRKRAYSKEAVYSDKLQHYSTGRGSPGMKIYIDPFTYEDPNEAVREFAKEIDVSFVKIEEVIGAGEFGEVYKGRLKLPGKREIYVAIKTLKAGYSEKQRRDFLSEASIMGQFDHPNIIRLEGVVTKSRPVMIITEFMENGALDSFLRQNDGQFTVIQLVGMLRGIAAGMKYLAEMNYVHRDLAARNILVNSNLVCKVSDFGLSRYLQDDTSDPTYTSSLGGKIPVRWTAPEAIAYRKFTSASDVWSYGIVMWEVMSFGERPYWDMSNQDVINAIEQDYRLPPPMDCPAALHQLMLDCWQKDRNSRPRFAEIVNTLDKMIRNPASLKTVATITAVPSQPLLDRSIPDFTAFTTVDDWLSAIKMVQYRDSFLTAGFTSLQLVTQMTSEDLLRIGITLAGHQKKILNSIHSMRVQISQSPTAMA
Chain of MERTK (Q12866 whole entry, looked up): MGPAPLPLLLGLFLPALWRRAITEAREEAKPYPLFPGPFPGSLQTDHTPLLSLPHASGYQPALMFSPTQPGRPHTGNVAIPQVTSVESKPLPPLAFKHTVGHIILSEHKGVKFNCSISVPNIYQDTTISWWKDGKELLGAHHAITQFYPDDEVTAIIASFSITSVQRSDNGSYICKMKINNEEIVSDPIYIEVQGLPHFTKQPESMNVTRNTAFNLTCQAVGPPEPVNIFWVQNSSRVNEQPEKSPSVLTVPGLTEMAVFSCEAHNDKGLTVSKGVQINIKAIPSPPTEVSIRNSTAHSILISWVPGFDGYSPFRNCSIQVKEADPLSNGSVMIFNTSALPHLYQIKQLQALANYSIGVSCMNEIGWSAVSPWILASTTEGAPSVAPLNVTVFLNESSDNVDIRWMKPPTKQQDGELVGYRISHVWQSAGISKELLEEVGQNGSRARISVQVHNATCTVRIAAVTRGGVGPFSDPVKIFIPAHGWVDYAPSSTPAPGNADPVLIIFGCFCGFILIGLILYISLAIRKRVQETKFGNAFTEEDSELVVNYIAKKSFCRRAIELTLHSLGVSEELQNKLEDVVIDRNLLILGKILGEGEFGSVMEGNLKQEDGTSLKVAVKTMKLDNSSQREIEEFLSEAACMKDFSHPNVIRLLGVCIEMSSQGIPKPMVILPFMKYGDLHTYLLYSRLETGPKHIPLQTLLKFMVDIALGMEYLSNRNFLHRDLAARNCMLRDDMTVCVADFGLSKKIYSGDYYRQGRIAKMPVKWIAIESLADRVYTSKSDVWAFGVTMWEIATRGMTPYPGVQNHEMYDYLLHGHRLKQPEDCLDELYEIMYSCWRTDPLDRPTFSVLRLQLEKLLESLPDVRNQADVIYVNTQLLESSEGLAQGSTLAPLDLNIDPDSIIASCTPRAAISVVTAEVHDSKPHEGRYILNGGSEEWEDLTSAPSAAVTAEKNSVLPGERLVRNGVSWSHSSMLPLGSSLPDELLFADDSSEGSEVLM
Chain of Fyn (P06241 whole entry, looked up): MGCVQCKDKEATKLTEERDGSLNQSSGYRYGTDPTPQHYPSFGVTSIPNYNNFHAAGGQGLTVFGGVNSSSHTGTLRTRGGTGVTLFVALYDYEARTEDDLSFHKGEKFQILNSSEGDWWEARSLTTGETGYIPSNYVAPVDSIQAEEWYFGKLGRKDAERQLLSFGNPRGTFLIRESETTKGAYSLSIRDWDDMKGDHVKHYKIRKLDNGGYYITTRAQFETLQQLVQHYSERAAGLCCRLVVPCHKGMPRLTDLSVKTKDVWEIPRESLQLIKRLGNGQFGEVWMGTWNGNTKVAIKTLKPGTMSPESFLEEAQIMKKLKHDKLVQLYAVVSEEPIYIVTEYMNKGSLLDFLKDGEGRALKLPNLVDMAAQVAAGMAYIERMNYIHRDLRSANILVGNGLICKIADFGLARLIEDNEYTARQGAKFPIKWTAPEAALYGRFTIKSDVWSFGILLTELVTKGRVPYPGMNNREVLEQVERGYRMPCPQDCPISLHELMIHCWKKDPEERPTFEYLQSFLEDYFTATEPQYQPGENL

SH2 binding enrichment (Grb2 SH2)	SH2 binding enrichment (c-Src SH2)	SH2 binding enrichment (SHP2-C SH2)	Sequence	phosphorylation enrichment (EPHB1)	phosphorylation enrichment (Fes)	phosphorylation enrichment (c-Src)	phosphorylation enrichment (FGFR3)	phosphorylation enrichment (Fer (mouse))	phosphorylation enrichment (Jak2)	phosphorylation enrichment (Fyn)	phosphorylation enrichment (MERTK)	phosphorylation enrichment (FGFR1)	phosphorylation enrichment (c-Abl (mouse))	phosphorylation enrichment (EPHB2)	phosphorylation enrichment (AncSZ)	phosphorylation enrichment (Hck)
0.627	0.458	0.407	ARGTRYRFVSQ [UCN3_Y95_YF]	0.416	0.548	0.607	0.535	0.492	0.742	0.52	0.48	0.483	0.63	0.41	0.597	0.546
0.904	0.398	0.448	ASKEPYFVRCI [MYO1D_Y585_YF]	0.762	1.77	0.611	0.93	0.569	1.22	0.622	0.574	0.449	0.938	0.734	1.38	0.659
0.924	0.685	0.889	ASKEPYYVHCI [MYO1D_Y585_R588H]	1.96	0.974	0.576	1.36	0.506	0.755	0.482	0.636	1.89	0.627	1.21	0.953	0.554
0.651	0.628	0.557	ATQDNYVLEVR [PTPRZ1_Y2179_D2178N]	0.502	1.08	0.38	0.676	0.486	0.821	0.452	0.45	0.489	0.6	0.458	0.934	0.411
0.882	0.6	0.805	CDYKKYGKGLR [ZNF445_Y433_Y428C]	0.284	0.576	0.299	0.445	0.318	0.563	0.364	0.335	0.404	0.525	0.362	0.565	0.349
0.692	0.586	1.29	CNSFRYGGGGG [NPPA_Y151]	0.35	0.766	0.311	0.469	0.488	0.5	0.439	0.348	0.389	0.597	0.552	0.857	0.349
1.41	2.09	1.27	CNTIHYNFMCN [TP53_Y234_T230N_YF]	0.438	0.822	0.498	0.515	0.483	0.636	0.419	0.357	0.513	0.601	0.4	0.787	0.531
0.885	0.589	0.721	CTNPQYLAAGS [RABL3_Y185_R184Q]	0.487	0.849	0.409	0.609	0.47	0.778	0.537	0.424	0.465	0.602	0.505	0.724	0.505
1.57	2.05	1.59	CTSIHYNFMCN [TP53_Y234_T231S_YF]	0.54	0.918	0.447	0.571	0.519	1	0.516	0.366	0.488	0.694	0.502	0.848	0.473
1.22	0.837	0.889	CTTIHCNFMCN [TP53_Y234_Y234C_YF]	0.67	0.869	0.441	0.574	0.454	0.862	0.419	0.441	0.45	0.629	0.546	0.782	0.446
1.83	1.72	2.05	CTTIHFNYMCN [TP53_Y234_Y234F]	0.488	0.74	0.519	0.553	0.572	0.628	0.432	0.397	0.534	0.458	0.501	0.68	0.427
1.4	1.68	2.05	CTTIHYNFMCK [TP53_Y234_N239K_YF]	0.403	0.816	0.413	0.489	0.351	0.631	0.476	0.407	0.418	0.562	0.387	0.659	0.533
3.51	3.1	2.23	CTTIYYNYMCN [TP53_Y234_H233Y]	4.95	1.03	6.51	9.96	2.86	5.1	8.51	7.86	12.1	6.37	4.3	1.54	6.93
0.665	0.531	0.823	DAANNYARGHF [TUBA3E_Y103_S101N_YF]	0.382	0.652	0.468	0.403	0.431	0.391	0.425	0.544	0.422	1.06	0.626	0.698	0.426
0.785	0.56	0.805	DAICFYRMENA [NPHS2_Y195_YF]	0.645	1.47	2.96	0.85	0.592	1.19	0.726	0.482	0.624	0.914	0.544	1.14	0.624

Second part, the sequence before the results:

Sequence	SH2 binding enrichment (Grb2 SH2)	SH2 binding enrichment (c-Src SH2)	SH2 binding enrichment (SHP2-C SH2)	phosphorylation enrichment (EPHB1)	phosphorylation enrichment (Fes)	phosphorylation enrichment (c-Src)	phosphorylation enrichment (FGFR3)	phosphorylation enrichment (Fer (mouse))	phosphorylation enrichment (Jak2)	phosphorylation enrichment (Fyn)	phosphorylation enrichment (MERTK)	phosphorylation enrichment (FGFR1)	phosphorylation enrichment (c-Abl (mouse))	phosphorylation enrichment (EPHB2)	phosphorylation enrichment (AncSZ)	phosphorylation enrichment (Hck)
ALAHEYHGGGG [HBB_Y146_K145E]	0.776	0.696	0.627	0.397	0.461	0.41	0.361	0.354	0.599	0.361	0.287	0.41	0.493	0.314	0.469	0.425
ALAQKYHGGGG [HBB_Y146_H144Q]	0.782	0.506	0.743	0.372	0.491	0.404	0.497	0.296	0.462	0.335	0.363	0.348	0.592	0.366	0.492	0.368
ALRHFYKLNII [ETV6_Y402_YF]	1.25	1.27	2.11	0.522	1.03	0.439	0.628	0.502	0.875	0.471	0.44	0.462	0.84	0.535	0.828	0.482
ALTRSYVREKV [CYP2C8_Y243_I244V]	0.804	0.495	0.551	0.42	0.532	0.316	0.522	0.398	0.353	0.387	0.459	0.364	0.617	0.462	0.571	0.437
ALWYIYSHTRS [ENG_Y614]	0.931	0.451	0.711	0.679	1.33	0.423	1.03	0.572	1.14	0.47	0.418	0.487	0.807	0.768	1.1	0.523
ANAYIYVVQLP [L1CAM_Y420]	1.37	0.814	1.44	0.875	1.17	1.04	1.18	0.478	1.14	0.841	1.53	1.25	0.734	0.735	1.33	0.714
ANNPLYKEATS [ITGB3_Y773]	1.04	0.53	0.913	0.363	0.53	0.3	0.379	0.228	0.406	0.343	0.316	0.349	0.635	0.499	0.395	0.385
APSEFYDGDHD [HDAC3_Y414_N411S]	1.1	0.544	0.733	0.659	1.35	0.565	0.923	0.639	1.32	0.615	0.51	0.78	0.932	0.55	1.3	0.528
ARLEFCENEKK [IRS1_Y47_Y47C_YF]	0.743	0.626	0.686	0.636	1.23	0.484	0.926	0.568	1.02	0.515	0.434	0.581	0.868	0.575	0.983	0.402
ARTNEYKIIRS [INA_Y87_T92S]	1.06	0.514	0.859	0.394	0.563	0.407	0.406	0.33	0.454	0.406	0.407	0.282	0.337	0.372	0.435	0.316
ASQEEYSAMRD [KRAS_Y64_G60S]	0.812	0.77	0.502	0.577	0.946	0.508	0.68	0.435	0.976	0.487	0.496	0.714	0.681	0.58	1.08	0.531
ATPSRYMTFLH [DYNC2H1_Y2872]	0.757	1.32	8.55	0.505	0.748	0.482	0.574	0.457	0.656	0.435	0.396	0.329	0.527	0.403	0.667	0.487
AVAFLYYKSIG [ADGRL4_Y301_V300L]	0.722	0.461	0.559	0.555	1.42	0.459	0.796	0.46	1.24	0.417	0.469	0.566	1.07	0.54	1.09	0.518
CFTRQYTLPPG [HSPB1_Y142_K141Q]	0.773	0.523	0.794	0.577	0.943	0.361	0.656	0.496	0.901	0.388	0.399	0.553	0.722	0.57	0.976	0.497
CKLCQYFLDHL [ATRX_Y1849_Y1847C_YF]	1.46	1.1	1.18	0.571	1.18	0.766	0.661	0.442	1.16	0.449	0.49	0.689	0.89	0.612	1.28	0.456
CKLCQYYLDHL [ATRX_Y1849_Y1847C]	1.54	1.39	1.67	0.673	0.779	1.57	0.613	0.423	0.806	0.515	0.419	0.579	0.593	0.419	0.795	0.437
CPSLLYSPVSS [CAMKK2_Y128_P127L]	0.784	1.07	0.682	4.73	2.02	3.5	1.36	12.2	1.28	1.87	8.18	1.38	1.06	4.13	1.44	6.11
CVRTIYTIDGS [DCLK2_Y124_G119C]	0.702	0.529	0.432	0.746	1.06	1.97	1	0.505	0.807	1.32	0.481	0.447	0.799	0.628	0.891	0.683
